According to paper PMC3815138, “Dynamic Interplay between the Periplasmic and Transmembrane Domains of GspL and GspM in the Type II Secretion System” (PLoS ONE, 2013):

Legend:
GST-OutC = biological target: T1, GST-OutC (Dickeya dadantii, UniProt Q01564 1-272); assay: pull-down; GST-Out derivatives immobilized on Glutathione Sepharose as baits; His-OutC purified by nickel affinity as prey, incubated 1 h; 1% Triton X-100, 15°C; five washes; immunoblot; conditions: both partners purified
T1 construct: OutC (GspC), type II secretion system of Dickeya dadantii; also called full-length OutC carrying a GST-tag; source: E. coli BL21(DE3), pGEX-6P-3 plasmid; immobilized on Glutathione Sepharose

GST-OutL = biological target: T2, GST-OutL (Dickeya dadantii, UniProt E0SLF6 1-400); assay: as above; conditions: both partners purified
T2 construct: OutL (GspL), type II secretion system of Dickeya dadantii; also called full-length OutL carrying a GST-tag; source: E. coli BL21(DE3), pGEX-6P-3 plasmid; immobilized on Glutathione Sepharose
T2 sequence: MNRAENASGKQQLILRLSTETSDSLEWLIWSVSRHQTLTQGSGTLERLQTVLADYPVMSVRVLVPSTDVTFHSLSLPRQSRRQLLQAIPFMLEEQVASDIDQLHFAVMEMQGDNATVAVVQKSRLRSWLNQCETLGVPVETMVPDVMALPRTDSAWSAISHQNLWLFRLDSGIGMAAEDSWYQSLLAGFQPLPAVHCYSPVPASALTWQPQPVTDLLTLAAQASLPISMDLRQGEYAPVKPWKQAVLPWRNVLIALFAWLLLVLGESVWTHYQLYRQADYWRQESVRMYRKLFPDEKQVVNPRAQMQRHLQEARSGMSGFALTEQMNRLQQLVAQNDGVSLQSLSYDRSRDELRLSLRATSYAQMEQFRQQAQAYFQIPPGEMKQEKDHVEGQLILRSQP

B1: His-OutC (natural protein)
chain: not shown
notes: OutC (GspC), bitopic inner membrane component of the type II secretion system of Dickeya dadantii; also called GspC; full-length OutC; source: E. coli BL21(DE3), pET20b(+) plasmid
Does B1 bind (GST-OutC)?
Result: binds

Does B1 bind (GST-OutL)?
Result: binds
